Source: FireProtDB (doi:10.1021/acs.biochem.7b00571)

B1: Salicylic acid-binding protein 2, Q6RYA0 (parent)
chain: MKEGKHFVLVHGACHGGWSWYKLKPLLEAAGHKVTALDLAASGTDLRKIEELRTLYDYTLPLMELMESLSADEKVILVGHSLGGMNLGLAMEKYPQKIYAAVFLAAFMPDSVHNSSFVLEQYNERTPAENWLDTQFLPYGSPEEPLTSMFFGPKFLAHKLYQLCSPEDLALASSLVRPSSLFMEDLSKAKYFTDERFGSVKRVYIVCTEDKGIPEEFQRWQIDNIGVTEAIEIKGADHMAMLCEPQKLCASLLEIAHKYN

Variants of: B1
Conditions: Nicotiana tabacum; pH 7.2; 4 °C; Urea; Fluorescence; BES; reversible: yes; structure 1Y7I; whole UniProt chain shown

MKEGKHFVLVHGACHGGWSWYKLKPLLEAAGHKVTALDLAASGTDLRKIEELRTLYDYTRPLMELMESLSADEKVILVGHSLGGMNLGLAMEKYPQKIYAAVFLAAFMPDSVHNSSFVLEQYNERTPAENWLDTQFLPYGSPEEPLTSMFFGPKFLAHKLYQLCSPEDLALASSLVRPSSLFMEDLSKAKYFTDERFGSVKRVYIVCTEDKGIPEEFQRWQIDNIGVTEAIEIKGADHMAMLCEPQKLCASLLEIAHKYN [L60R] and MKEGKHFVLVHGACHGGWSWYKLKPLLEAAGHKVTALDLAASGTDPRKIEELRTLYDYTLPLMELMESLSADEKVILVGHSLGGMNLGLAMEKYPQKIYAAVFLAAFMPDSVHNSSFVLEQYNERTPAENWLDTQFLPYGSPEEPLTSMFFGPKFLAHKLYQLCSPEDLALASSLVRPSSLFMEDLSKAKYFTDERFGSVKRVYIVCTEDKGIPEEFQRWQIDNIGVTEAIEIKGADHMAMLCEPQKLCASLLEIAHKYN [L46P] are within 1.5-fold of each other in “denaturant midpoint (higher = more stable)” value (from here on “denaturant midpoint”): 2.7 M for the first, 2.4 M for the second.

MKEGKHFVLVHGACHGGWSWYKLKPLLEAAGHKVTALDLAASGTDLRKIEELRTLYDYTLPLMELMESLSPDEKVILVGHSLGGMNLGLAMEKYPQKIYAAVFLAAFMPDSVHNSSFVLEQYNERTPAENWLDTQFLPYGSPEEPLTSMFFGPKFLAHKLYQLCSPEDLALASSLVRPSSLFMEDLSKAKYFTDERFGSVKRVYIVCTEDKGIPEEFQRWQIDNIGVTEAIEIKGADHMAMLCEPQKLCASLLEIAHKYN [A71P] and MKEGKHFVLVHGACHGGWSWYKLKPLLEAAGHKVTALDLAASGTDLRKIEELRTLYDYTLPLMELMESLSADEKVILVGHSLGGMNLGLAMEKYPQKIYAAVFLAAFMPDPVHNSSFVLEQYNERTPAENWLDTQFLPYGSPEEPLTSMFFGPKFLAHKLYQLCSPEDLALASSLVRPSSLFMEDLSKAKYFTDERFGSVKRVYIVCTEDKGIPEEFQRWQIDNIGVTEAIEIKGADHMAMLCEPQKLCASLLEIAHKYN [S111P] are within 1.5-fold of each other in “denaturant midpoint” value: 1.9 M for the first, 1.7 M for the second.

MKEGKHFVLVHGACHGGWSWYKLKPLLEAAGHKVTALDLAASGTDLRKIEELRTLYDYTLPLMELMESLSADEKVILVGHSLGGMNLGLAMEKYPQKIYAAVFLAAFMPDGVHNSSFVLEQYNERTPAENWLDTQFLPYGSPEEPLTSMFFGPKFLAHKLYQLCSPEDLALASSLVRPSSLFMEDLSKAKYFTDERFGSVKRVYIVCTEDKGIPEEFQRWQIDNIGVTEAIEIKGADHMAMLCEPQKLCASLLEIAHKYN [S111G] and MKEGKHFVLVHGACHGGWSWYKLKPLLEAAGHKVTALDLAASGTDLRKIEELRTLYDYTLPLMELMESLPADEKVILVGHSLGGMNLGLAMEKYPQKIYAAVFLAAFMPDSVHNSSFVLEQYNERTPAENWLDTQFLPYGSPEEPLTSMFFGPKFLAHKLYQLCSPEDLALASSLVRPSSLFMEDLSKAKYFTDERFGSVKRVYIVCTEDKGIPEEFQRWQIDNIGVTEAIEIKGADHMAMLCEPQKLCASLLEIAHKYN [S70P] are within 1.5-fold of each other in “denaturant midpoint” value: 1.7 M for the first, 2.4 M for the second.

MKEGKHFVLVHGACHGGWSWYKLKPLLEAAGHKVTALDLAASGTDLRKIEELRTLYDYTLPLMELMESLSADEKVILVGHSLGGMNLGLAMEKYPQKIYAAVFLAAFMPDSVHNASFVLEQYNERTPAENWLDTQFLPYGSPEEPLTSMFFGPKFLAHKLYQLCSPEDLALASSLVRPSSLFMEDLSKAKYFTDERFGSVKRVYIVCTEDKGIPEEFQRWQIDNIGVTEAIEIKGADHMAMLCEPQKLCASLLEIAHKYN [S115A] and MKEGKHFVLVHGACHGGWSWYKLKPLLEAAGHKVTALDLAASGTDLRKIEELRTLYDYTLPLMELMESLSADEKVILVGHSLGGMNLGLAMEKYPQKIYAAVFLAAFMPDSVHNPSFVLEQYNERTPAENWLDTQFLPYGSPEEPLTSMFFGPKFLAHKLYQLCSPEDLALASSLVRPSSLFMEDLSKAKYFTDERFGSVKRVYIVCTEDKGIPEEFQRWQIDNIGVTEAIEIKGADHMAMLCEPQKLCASLLEIAHKYN [S115P] are within 1.5-fold of each other in “denaturant midpoint” value: 2.4 M for the first, 1.9 M for the second.

MKEGKHFVLVHGACHGGWSWYKLKPLLEAAGHKVTALDLAASGTDLRKIEELRTLYDYTLPLMELMESLSADEKVILVGHSLGGMNLGLAMEKYPQKIYAAVFLAAFMPDSVHNSSFVLEQYNERTPAENWLDTQFLPYGSPEYPLTSMFFGPKFLAHKLYQLCSPEDLALASSLVRPSSLFMEDLSKAKYFTDERFGSVKRVYIVCTEDKGIPEEFQRWQIDNIGVTEAIEIKGADHMAMLCEPQKLCASLLEIAHKYN [E144Y] and MKEGKHFVLVHGACHGGWSWYKLKPLLEAAGHKVTALDLAASGTDLRKIEELRTLYDYTLPLMELMESLSADEKVILVGHSLGGMNLGLAMEKYPQKIYAAVFLAAFMPDSVHNSSFVLEQYNERTPAENWLDTQFLPYGSPEMPLTSMFFGPKFLAHKLYQLCSPEDLALASSLVRPSSLFMEDLSKAKYFTDERFGSVKRVYIVCTEDKGIPEEFQRWQIDNIGVTEAIEIKGADHMAMLCEPQKLCASLLEIAHKYN [E144M] are within 1.5-fold of each other in “denaturant midpoint” value: 2.4 M for the first, 2 M for the second.

MKEGKHFVLVHGACHGGWSWYKLKPLLEAAGHKVTALDLAASGTDLRKIEELRTLYDYTLPLMELMESLSADEKVILVGHSLGGMNLGLAMEKYPQKIYAAVFLAAFMPDSVHGSSFVLEQYNERTPAENWLDTQFLPYGSPEEPLTSMFFGPKFLAHKLYQLCSPEDLALASSLVRPSSLFMEDLSKAKYFTDERFGSVKRVYIVCTEDKGIPEEFQRWQIDNIGVTEAIEIKGADHMAMLCEPQKLCASLLEIAHKYN [N114G] and MKEGKHFVLVHGACHGGWSWYKLKPLLEAAGHKVTALDLAASGTDLRKIEELRTLYDYTLPLMELMESLSADEKVILVGHSLGGMNLGLAMEKYPQKIYAAVFLAAFMPDSVHLSSFVLEQYNERTPAENWLDTQFLPYGSPEEPLTSMFFGPKFLAHKLYQLCSPEDLALASSLVRPSSLFMEDLSKAKYFTDERFGSVKRVYIVCTEDKGIPEEFQRWQIDNIGVTEAIEIKGADHMAMLCEPQKLCASLLEIAHKYN [N114L] are within 1.5-fold of each other in “denaturant midpoint” value: 2.5 M for the first, 2 M for the second.

MKEGKHFVLVHGACHGGWSWYKLKPLLEAAGHKVTALDLAASGTDLRKIEELRTLYDYTLPLMELMESLSADEKVILVGHSLGGMNLGLAMEKYPQKIYAAVFLAAFMPDSVHNSSFVLEQYNERTPAENWLDTQFLPYGSPEEPLTSMFFGPKFLAHKLYQLCSPEDLALASSLVRPSSLFMEDLSRAKYFTDERFGSVKRVYIVCTEDKGIPEEFQRWQIDNIGVTEAIEIKGADHMAMLCEPQKLCASLLEIAHKYN [K188R] and MKEGKHFVLVHGACHGGWSWYKLKPLLEAAGHKVTALDLAASGTDLRKIEELRTLYDYTLPLMELMESLSADEKVILVGHSLGGMNLGLAMEKFPQKIYAAVFLAAFMPDSVHNSSFVLEQYNERTPAENWLDTQFLPYGSPEEPLTSMFFGPKFLAHKLYQLCSPEDLALASSLVRPSSLFMEDLSKAKYFTDERFGSVKRVYIVCTEDKGIPEEFQRWQIDNIGVTEAIEIKGADHMAMLCEPQKLCASLLEIAHKYN [Y94F] are within 1.5-fold of each other in “denaturant midpoint” value: 2.5 M for the first, 2.2 M for the second.

MKEGKHFVLVHGACHGGWSWYKLKPLLEAAGHKVTALDLAASGTDLRKIEELRTLYDYTLPLMELMESLSADEKVILVGHSLGGMNLGLAMEKYPQKIYAAVFLAAFMPDSVHNSSFVLEQYNERTPAENWLDTQFLPYGSPEEPLTSMFFGPKFLAHKLYQLCSPEDLALASSLVRPSSLFMEDLSKNKYFTDERFGSVKRVYIVCTEDKGIPEEFQRWQIDNIGVTEAIEIKGADHMAMLCEPQKLCASLLEIAHKYN [A189N] and MKEGKHFVLVHGACHGGWSWYKLKPLLEAAGHKVTALDLAASGTDLRKIEELRTLYDYTLPLMELMESLSADEKVILVGHSLGGMNLGLAMEKYPQKIYAAVFLAAFMPDSVHNSSFVLEQYNERTPAENWLDTQFLPYGSPEEPLTSMFFGPKFLAHKLYQLCSPEDLALVSSLVRPSSLFMEDLSKAKYFTDERFGSVKRVYIVCTEDKGIPEEFQRWQIDNIGVTEAIEIKGADHMAMLCEPQKLCASLLEIAHKYN [A172V] are within 1.5-fold of each other in “denaturant midpoint” value: 2.6 M for the first, 2.3 M for the second.

MKEGKHFVLVHGACHGGWSWYKLKPLLEAAGHKVTALDLAASGTDLRKIEELRTLYDYTLPLMELMESLSADEKVILVGHSLGGMNLGLAMEKYPQKIYAAVFLAAFMPDSVHNSSFVLEQYNERTPAENWLDTQFLPYGPPEEPLTSMFFGPKFLAHKLYQLCSPEDLALASSLVRPSSLFMEDLSKAKYFTDERFGSVKRVYIVCTEDKGIPEEFQRWQIDNIGVTEAIEIKGADHMAMLCEPQKLCASLLEIAHKYN [S141P] and MKEGKHFVLVHGACHGGWSWYKLKPLLEAAGHKVTALDLAASGTDLRKIEELRTLYDYTLPLMELMESLSADEKVILVGHSLGGMNLGLAMEKYPQKIYAAVFLAAFMPDSVHNSSFVLEQYNERTPAENWLDTQFLPYGNPEEPLTSMFFGPKFLAHKLYQLCSPEDLALASSLVRPSSLFMEDLSKAKYFTDERFGSVKRVYIVCTEDKGIPEEFQRWQIDNIGVTEAIEIKGADHMAMLCEPQKLCASLLEIAHKYN [S141N] are within 1.5-fold of each other in “denaturant midpoint” value: 2.2 M for the first, 1.8 M for the second.

First: MKEGKHFVLVHGACHGGWSWYKLKPLLEAAGHKVTALDLAASGTDLRKIEELRTLYDYTLPLMELMESLSADEKVILVGHSLGGMNLGLAMEKYPQKIYAAVFLAAFMPDSVHNSSFVLEQYNERTPAENWLDTQFLPYGSPEEPLTSMFFGPKFLAHKLYHLCSPEDLALASSLVRPSSLFMEDLSKAKYFTDERFGSVKRVYIVCTEDKGIPEEFQRWQIDNIGVTEAIEIKGADHMAMLCEPQKLCASLLEIAHKYN [Q162H]
Second: MKEGKHFVLVHGACHGGWSWYKLKPLLEAAGHKVTALDLAASGTDLRKIEELRTLYDYTLPLMEFMESLSADEKVILVGHSLGGMNLGLAMEKYPQKIYAAVFLAAFMPDSVHNSSFVLEQYNERTPAENWLDTQFLPYGSPEEPLTSMFFGPKFLAHKLYQLCSPEDLALASSLVRPSSLFMEDLSKAKYFTDERFGSVKRVYIVCTEDKGIPEEFQRWQIDNIGVTEAIEIKGADHMAMLCEPQKLCASLLEIAHKYN [L65F]
The “denaturant midpoint” value of the first is 1.6-fold lower: 2.4 M for the first, 3.8 M for the second.

Going from MKEGKHFVLVHGACHGGWSWYKLKPLLEAAGHKVTALDLAASGTDLRKIEELRTLYDYTLPLMELMESLSADEKVILVGHSLGGMNLGLAMEKYPQKIYAAVFLAAFMPDSVHNSSFVLEQYNERTPAENWLDTQFLPYGSPEEPLTSMFFGPKFLAHKLYQLCPPEDLALASSLVRPSSLFMEDLSKAKYFTDERFGSVKRVYIVCTEDKGIPEEFQRWQIDNIGVTEAIEIKGADHMAMLCEPQKLCASLLEIAHKYN [S165P] to MKEGKHFVLVHGACHGGWSWYKLKPLLEAAGHKVTALDLAASGTDLRKIEELRTLYDYTLPLMELMESLSADEKVILVGHSLGGMNLGLAMEKYPQKIYAAVFLAAFMPDSVHNSSFVLEQYNERTPAENWLDTQFLPYGSPEEPLTSMFFGPKFLAHKLYQLSSPEDLALASSLVRPSSLFMEDLSKAKYFTDERFGSVKRVYIVCTEDKGIPEEFQRWQIDNIGVTEAIEIKGADHMAMLCEPQKLCASLLEIAHKYN [C164S], the “denaturant midpoint” value falls from 2.5 M to 0.9 M (2.8-fold).

In the case of MKEGKHFVLVHGACHGAWSWYKLKPLLEAAGHKVTALDLAASGTDLRKIEELRTLYDYTLPLMELMESLSADEKVILVGHSLGGMNLGLAMEKYPQKIYAAVFLAAFMPDSVHNSSFVLEQYNERTPAENWLDTQFLPYGSPEEPLTSMFFGPKFLAHKLYQLCSPEDLALASSLVRPSSLFMEDLSKAKYFTDERFGSVKRVYIVCTEDKGIPEEFQRWQIDNIGVTEAIEIKGADHMAMLCEPQKLCASLLEIAHKYN [G17A], the “denaturant midpoint” value is reported as 2.1 M.
